Measurements: patent US20170014503A1

Key:
[1] = molecular target: SP62 (gp41 652-671)-GTH1 peptide anchored to liposomes (HIV-1); assay: BIAcore SPR on liposome-anchored peptide; encounter-docking model; reverse rate of the docking step
[2] = molecular target: SP62-L669S (gp41 652-671)-GTH1 peptide anchored to liposomes (HIV-1); assay: as above
[3] = molecular target: SP62 (gp41 652-671)-GTH1 peptide anchored to liposomes (HIV-1); assay: BIAcore SPR on liposome-anchored peptide; encounter-docking model; forward rate of the docking step
[4] = molecular target: SP62-L669S (gp41 652-671)-GTH1 peptide anchored to liposomes (HIV-1); assay: as above
[5] = molecular target: KYNU wt
[6] = molecular target: KYNU mut
[7] = molecular target: SP62 (gp41 652-671)-GTH1 peptide anchored to liposomes (HIV-1); assay: SPR, peptide anchored to phospholipid liposomes
[8] = molecular target: SP62-L669S (gp41 652-671)-GTH1 peptide anchored to liposomes (HIV-1); assay: SPR, peptide anchored to phospholipid liposomes
[9] = molecular target: SP62 (gp41 652-671)-GTH1 peptide anchored to liposomes (HIV-1); assay: BIAcore SPR on liposome-anchored peptide; encounter-docking model; dissociation of the encounter step
[10] = molecular target: SP62-L669S (gp41 652-671)-GTH1 peptide anchored to liposomes (HIV-1); assay: as above
[11] = molecular target: SP62 (gp41 652-671)-GTH1 peptide anchored to liposomes (HIV-1); assay: BIAcore SPR on liposome-anchored peptide; encounter-docking model A + B <-> AB (encounter) <-> ABx (docked); association of the encounter step
[12] = molecular target: SP62-L669S (gp41 652-671)-GTH1 peptide anchored to liposomes (HIV-1); assay: as above

## 2F5 mAb (antibody)
[1]
  kd2: 0.00037 s⁻¹
[2]
  kd2: 2e-05 s⁻¹
[3]
  ka2: 0.0181 s⁻¹
[4]
  ka2: 0.0054 s⁻¹
[5]
  reactivity value in column 'KYNU wt': 3.63
[6]
  reactivity value in column 'KYNU mut': 0.465
[7]
  response unit at 10 seconds after the injection was stopped: 495 RU
[8]
  response unit (background subtracted) at 10 seconds after the injection was stopped: 617 RU
[9]
  kd1: 0.00692 s⁻¹
[10]
  kd1: 0.00119 s⁻¹
[11]
  ka1: 931000 M⁻¹ s⁻¹
[12]
  ka1: 498000 M⁻¹ s⁻¹
